Data as given in patent US20030009023A1 (US Dept. of Health and Human Services, published 2003).

B2: bovine Frzb (other)
chain: AACEPVRIPLCKSLPWNMTKMPNHLHHSTQANAILAIEQFEGLLGTHCSPDLLFFLCAMYAPICTIDFQHEPIKPCKSVCERARQGCEPILIKYRHSWPESLACEELPVYDRGVCISPEAIVTADGADFPMDSSNGNCRGASSERCKCKPVRATQKTYFRNNYNYVIRAKVKEIKTKCHDVTAVVEVKEILKASLVNIPRETVNLYTSSGCLCPPLNVNEEYLIMGYEDEERSRLLLVEGSIAEKWKDRLGKKVKRWDMKLRHLGLNTSDSSHSDSTQSQKPGRNSNSRQARN
notes: Full-length bovine Frzb expressed from pcDNA3 (pFrzb) in COS7 cells, or translated in vitro with microsomal membranes, or from injected mRNA; also called Bfrzb; BFrzb

How the values were obtained:
Xwnt-8 (Xenopus) = Xwnt-8 (Xenopus) (UniProt P28026); experiment: cell-based or functional assay
Xwnt-8^myc = biological target: T1, Xwnt-8^myc (Xenopus, UniProt P28026 23-358, limits assumed); experiment: co-immunoprecipitation after in vitro cotranslation
T1 construct: also called myc-tagged XWnt-8
T1 sequence (looked up): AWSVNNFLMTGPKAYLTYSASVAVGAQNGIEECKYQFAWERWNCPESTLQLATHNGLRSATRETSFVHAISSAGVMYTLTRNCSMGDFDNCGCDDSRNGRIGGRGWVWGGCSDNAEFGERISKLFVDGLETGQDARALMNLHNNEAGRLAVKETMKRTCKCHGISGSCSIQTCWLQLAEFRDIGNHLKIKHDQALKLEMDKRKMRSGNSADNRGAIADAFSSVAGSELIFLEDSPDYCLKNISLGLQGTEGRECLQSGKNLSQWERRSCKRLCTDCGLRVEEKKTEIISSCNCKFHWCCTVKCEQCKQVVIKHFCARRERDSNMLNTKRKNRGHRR

bovine Frzb = biological target: B2; experiment: as above
HA-tagged mouse Wnt-5B = biological target: T2, HA-tagged mouse Wnt-5B (mouse, UniProt P22726 18-359, limits assumed); experiment: anti-HA immunoprecipitation of co-transfected COS7 lysates, immunoblot with N374-PEP
T2 construct: also called pLNCW5B-HA; not shown: HA tag
T2 sequence (looked up): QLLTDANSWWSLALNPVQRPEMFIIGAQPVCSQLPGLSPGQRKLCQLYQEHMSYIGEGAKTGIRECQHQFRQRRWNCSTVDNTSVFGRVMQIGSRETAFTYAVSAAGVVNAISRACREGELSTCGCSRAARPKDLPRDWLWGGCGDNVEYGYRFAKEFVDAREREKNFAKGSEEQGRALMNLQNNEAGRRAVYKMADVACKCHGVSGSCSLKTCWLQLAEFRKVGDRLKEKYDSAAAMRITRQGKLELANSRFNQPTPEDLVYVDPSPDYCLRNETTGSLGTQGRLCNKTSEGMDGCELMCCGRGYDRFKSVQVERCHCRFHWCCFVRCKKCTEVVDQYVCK

HA-tagged mouse Wnt-7A = biological target: T3, HA-tagged mouse Wnt-7A (mouse, UniProt P24383 32-349, limits assumed); experiment: as above
T3 construct: also called pLNCW7A-HA; not shown: HA tag
T3 sequence (looked up): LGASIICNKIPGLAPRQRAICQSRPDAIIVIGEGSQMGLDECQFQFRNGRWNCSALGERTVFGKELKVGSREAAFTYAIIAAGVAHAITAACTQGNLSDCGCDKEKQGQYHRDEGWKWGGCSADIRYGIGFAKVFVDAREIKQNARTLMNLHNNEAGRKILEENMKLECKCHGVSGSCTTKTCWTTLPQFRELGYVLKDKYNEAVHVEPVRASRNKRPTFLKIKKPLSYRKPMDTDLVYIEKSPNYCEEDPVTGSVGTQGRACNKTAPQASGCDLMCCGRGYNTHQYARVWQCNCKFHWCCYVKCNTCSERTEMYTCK

HA-tagged mouse Wnt-4 = biological target: T4, HA-tagged mouse Wnt-4 (mouse, UniProt P22724 23-351, limits assumed); experiment: as above
T4 construct: also called pLNCW4-HA; not shown: HA tag
T4 sequence (looked up): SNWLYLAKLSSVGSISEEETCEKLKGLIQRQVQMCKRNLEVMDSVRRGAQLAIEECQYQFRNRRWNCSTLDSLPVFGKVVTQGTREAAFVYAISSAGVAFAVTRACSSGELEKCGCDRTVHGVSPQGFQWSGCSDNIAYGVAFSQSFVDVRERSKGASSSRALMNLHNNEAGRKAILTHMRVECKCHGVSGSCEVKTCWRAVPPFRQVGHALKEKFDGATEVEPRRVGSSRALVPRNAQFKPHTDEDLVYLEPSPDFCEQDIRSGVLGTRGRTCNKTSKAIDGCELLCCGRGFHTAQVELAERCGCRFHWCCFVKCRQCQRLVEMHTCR

HA-tagged mouse Wnt-3A = biological target: T5, HA-tagged mouse Wnt-3A (mouse, UniProt P27467 19-352, limits assumed); experiment: as above
T5 construct: also called pLNCW3A-HA; not shown: HA tag
T5 sequence (P27467 19-352 limits assumed): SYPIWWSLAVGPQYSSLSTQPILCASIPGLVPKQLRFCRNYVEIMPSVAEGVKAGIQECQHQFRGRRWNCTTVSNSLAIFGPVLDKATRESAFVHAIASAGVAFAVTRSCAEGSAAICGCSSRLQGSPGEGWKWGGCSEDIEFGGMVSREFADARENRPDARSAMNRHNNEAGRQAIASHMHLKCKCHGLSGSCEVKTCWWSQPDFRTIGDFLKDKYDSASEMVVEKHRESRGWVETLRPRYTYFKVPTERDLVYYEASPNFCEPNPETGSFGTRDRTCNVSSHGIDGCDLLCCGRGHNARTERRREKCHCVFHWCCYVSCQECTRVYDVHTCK

HA-tagged mouse Wnt-7B = biological target: T6, HA-tagged mouse Wnt-7B (mouse, UniProt P28047 25-349, limits assumed); experiment: as above
T6 construct: also called pLNCW7B-HA; not shown: HA tag
T6 sequence (looked up): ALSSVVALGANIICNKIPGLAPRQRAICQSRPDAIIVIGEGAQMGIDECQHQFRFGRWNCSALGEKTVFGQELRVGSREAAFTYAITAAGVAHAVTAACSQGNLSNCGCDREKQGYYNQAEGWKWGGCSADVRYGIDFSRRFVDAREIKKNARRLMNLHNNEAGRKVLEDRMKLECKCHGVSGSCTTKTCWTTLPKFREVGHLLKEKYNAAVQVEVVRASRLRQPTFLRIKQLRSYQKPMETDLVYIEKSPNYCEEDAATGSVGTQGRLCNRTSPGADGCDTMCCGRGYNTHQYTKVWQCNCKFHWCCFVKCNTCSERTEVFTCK

HA-tagged mouse Wnt-2 = biological target: T7, HA-tagged mouse Wnt-2 (mouse, UniProt P21552 26-360, limits assumed); experiment: as above
T7 construct: also called pLNCW2-HA; not shown: HA tag
T7 sequence (looked up): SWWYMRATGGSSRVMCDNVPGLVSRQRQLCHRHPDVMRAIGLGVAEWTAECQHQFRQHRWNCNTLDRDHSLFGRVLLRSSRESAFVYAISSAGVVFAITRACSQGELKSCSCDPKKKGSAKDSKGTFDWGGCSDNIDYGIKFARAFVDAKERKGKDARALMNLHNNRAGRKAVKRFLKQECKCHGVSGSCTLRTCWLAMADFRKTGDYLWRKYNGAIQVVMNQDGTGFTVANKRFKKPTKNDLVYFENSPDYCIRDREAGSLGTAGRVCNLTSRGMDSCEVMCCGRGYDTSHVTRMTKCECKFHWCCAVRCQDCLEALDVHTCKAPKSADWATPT

HA-tagged murine Wnt-1 [1] = biological target: T8, HA-tagged murine Wnt-1 (mouse, UniProt P04426 28-370); experiment: as above
T8 construct: also called pLNCWnt1HA; pLNCW1-HA; not shown: hemagglutinin (HA) tag near the C-terminus
T8 sequence (looked up): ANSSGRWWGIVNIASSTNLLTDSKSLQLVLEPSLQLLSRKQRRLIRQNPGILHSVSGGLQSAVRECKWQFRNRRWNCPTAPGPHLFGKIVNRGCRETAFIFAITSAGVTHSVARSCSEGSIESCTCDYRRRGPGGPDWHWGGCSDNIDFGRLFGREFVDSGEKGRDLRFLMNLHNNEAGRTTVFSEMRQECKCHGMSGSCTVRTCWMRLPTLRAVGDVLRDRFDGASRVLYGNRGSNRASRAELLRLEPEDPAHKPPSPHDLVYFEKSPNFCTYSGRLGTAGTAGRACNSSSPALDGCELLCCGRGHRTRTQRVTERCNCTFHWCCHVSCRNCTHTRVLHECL

HA-tagged mouse Wnt-6 = biological target: T9, HA-tagged mouse Wnt-6 (mouse, UniProt P22727 24-364, limits assumed); experiment: as above
T9 construct: also called pLNCW6-HA; not shown: HA tag
T9 sequence (looked up): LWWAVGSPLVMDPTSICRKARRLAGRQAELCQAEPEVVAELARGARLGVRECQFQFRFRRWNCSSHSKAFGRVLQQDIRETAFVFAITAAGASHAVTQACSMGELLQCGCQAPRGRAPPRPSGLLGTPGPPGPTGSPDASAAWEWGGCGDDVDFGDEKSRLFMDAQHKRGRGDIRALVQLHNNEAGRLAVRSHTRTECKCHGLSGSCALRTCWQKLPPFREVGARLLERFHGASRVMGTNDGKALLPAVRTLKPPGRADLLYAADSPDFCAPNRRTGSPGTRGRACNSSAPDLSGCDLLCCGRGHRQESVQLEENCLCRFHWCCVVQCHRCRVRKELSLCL

HA-tagged murine Wnt-1 [2] = biological target: T8, HA-tagged murine Wnt-1; experiment: co-immunoprecipitation from lysates of co-transfected COS7 cells

Xenopus Frzb
head defects produced by CSKA-Xwnt-8 plasmid in dorsal blastomeres (64/80 embryos without Xfrzb) (embryos with head defects out of 81) (Xwnt-8 (Xenopus)): 0

B1: β-lactamase (enzyme)
chain: HPETLVKVKDAEDQLGARVGYIELDLNSGKILESFRPEERFPMMSTFKVLLCGAVLSRVDAGQEQLGRRIHYSQNDLVEYSPVTEKHLTDGMTVRELCSAAITMSDNTAANLLLTTIGGPKELTAFLHNMGDHVTRLDRWEPELNEAIPNDERDTTMPAAMATTLRKLLTGELLTLASRQQLIDWMEADKVAGPLLRSALPAGWFIADKSGAGERGSRGIIAALGPDGKPSRIVVIYTTGSQATMDERNRQIAEIGASLIKHW
notes: also called β-lactamase control
binding result (Xwnt-8^myc): no binding
binding result (bovine Frzb): no binding

B2
binding result (HA-tagged mouse Wnt-5B): binds
binding result (HA-tagged mouse Wnt-7A): binds
binding result (HA-tagged mouse Wnt-4): binds
binding result (HA-tagged mouse Wnt-3A): binds
binding result (HA-tagged mouse Wnt-7B): binds
binding result (HA-tagged mouse Wnt-2): binds
binding result (HA-tagged murine Wnt-1 [1]): binds
binding result (HA-tagged mouse Wnt-6): binds

B3: Frzb deletion construct delta CRD (other)
chain: AACEPVVCISPEAIVTADGADFPMDSSNGNCRGASSERCKCKPVRATQKTYFRNNYNYVIRAKVKEIKTKCHDVTAVVEVKEILKASLVNIPRETVNLYTSSGCLCPPLNVNEEYLIMGYEDEERSRLLLVEGSIAEKWKDRLGKKVKRWDMKLRHLGLNTSDSSHSDSTQSQKPGRNSNSRQARN
notes: Made by deleting amino acids 39 to 145 of Frzb; also called CRD deletion; removal of the entire frizzled domain
binding result (HA-tagged murine Wnt-1 [2]): no binding
